Where a SMILES comes first, the peptide text is derived from it.

One assay addresses CK1γ1(h) (Homo sapiens, UniProt Q9HCP0). The assay can be described thus: Kinase Profiling Assay. The class given is biochemical. The settings on record: 100 μM peptide. In a few lines:
(§1)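 Peptides designed to inhibit MK2 were checked against a broad human kinase panel (266 enzymes), with duplicate measurement of every activity.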

The target of the next assay is CLK2(h) (Homo sapiens, UniProt P49760). The assay is described as follows: Kinase Profiling Assay. The class given is biochemical. The settings on record: 100 μM peptide. A digest of the protocol: as §1
Sequence of CLK2(h) (P49760 whole entry): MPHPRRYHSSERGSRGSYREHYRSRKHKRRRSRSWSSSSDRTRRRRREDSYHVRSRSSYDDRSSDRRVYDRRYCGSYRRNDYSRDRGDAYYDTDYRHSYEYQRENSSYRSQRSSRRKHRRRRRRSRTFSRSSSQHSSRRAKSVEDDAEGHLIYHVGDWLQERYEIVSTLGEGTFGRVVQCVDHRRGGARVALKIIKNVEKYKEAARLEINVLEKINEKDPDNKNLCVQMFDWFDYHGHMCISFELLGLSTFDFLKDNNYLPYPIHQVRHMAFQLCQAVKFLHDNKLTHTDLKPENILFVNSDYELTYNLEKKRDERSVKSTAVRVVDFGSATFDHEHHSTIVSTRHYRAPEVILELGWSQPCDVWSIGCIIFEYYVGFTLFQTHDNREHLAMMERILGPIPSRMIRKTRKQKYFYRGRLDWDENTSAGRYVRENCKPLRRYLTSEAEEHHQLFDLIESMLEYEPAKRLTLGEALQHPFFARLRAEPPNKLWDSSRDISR
The target in the next assay is T1, Plk1(h) (Homo sapiens, UniProt P53350).
T1 construct: purchased Millipore (IC50 Profiler Express service)
T1 sequence (P53350 whole entry): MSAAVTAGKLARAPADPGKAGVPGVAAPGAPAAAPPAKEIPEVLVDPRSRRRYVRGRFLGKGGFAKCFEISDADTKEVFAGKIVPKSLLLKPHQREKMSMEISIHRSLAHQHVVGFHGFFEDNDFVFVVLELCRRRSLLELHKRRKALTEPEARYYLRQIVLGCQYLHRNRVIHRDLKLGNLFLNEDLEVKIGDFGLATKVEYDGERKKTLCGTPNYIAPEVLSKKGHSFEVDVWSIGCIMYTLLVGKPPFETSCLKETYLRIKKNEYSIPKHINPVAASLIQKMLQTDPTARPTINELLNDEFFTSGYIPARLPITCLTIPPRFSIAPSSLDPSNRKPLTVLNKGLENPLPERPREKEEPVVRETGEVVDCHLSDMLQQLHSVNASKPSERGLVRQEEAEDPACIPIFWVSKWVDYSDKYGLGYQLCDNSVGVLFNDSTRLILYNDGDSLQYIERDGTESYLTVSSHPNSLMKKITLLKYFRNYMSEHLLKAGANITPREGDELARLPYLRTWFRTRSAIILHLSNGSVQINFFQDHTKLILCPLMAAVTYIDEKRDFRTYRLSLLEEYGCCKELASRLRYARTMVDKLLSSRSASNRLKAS
The assay can be described thus: Kinase Profiling Assay. The class given is biochemical. The conditions noted are these: 100 μM peptide. In a few lines:
as §1

A further assay deals with c-RAF(h) (Homo sapiens, UniProt P04049). The assay is described as follows: Kinase Profiling Assay. The class given is biochemical. The settings on record: 100 μM peptide. In a few lines: as §1
In assay [1] the test system is bleomycin-induced lung fibrosis in C57BL/6 mice. The assay can be described thus: Bleomycin mouse model of pulmonary fibrosis, treatment model (dosing day 14 to 28). The class given is in vivo. On the set-up: collagen deposition (hydroxyproline assay, whole left lung): dose or concentration left out as unconfirmed. The protocol: A mouse model of pulmonary fibrosis was generated by administering 0.025 U of bleomycin/PBS intratracheally to C57BL/6 mice. […] At 21 day post bleomycin delivery (for prevention model) or 28 post bleomycin delivery (for treatment model), groups of mice were sacrificed with a sodium pentobarbital injection (120 mg/kg) and the chest cavity was opened. The right mainstem bronchus was ligated and the right lung was removed. The trachea was cannulated and the left lung was perfused with 4% formaldehyde at 21 cm H2O pressure. The tissue blocks then were embedded in paraffin, and […] sections were prepared for staining. Sections from each animal were stained with hematoxylin and eosin (H&E) to visualize cells or with Masson's Trichrome staining to highlight collagen deposition. […] Stained sections were mounted onto a labeled glass slide with organic mounting medium.
The classic bleomycin model, as depicted in FIG. 10, has been used widely in the literature in the pre-fibrotic stage to test efficacy of any intervention. […]
Next, collagen deposition was determined quantitatively by using the standard hydroxyproline assay with whole left lung. Total collagen (soluble and insoluble) deposition was assessed by analyzing hydroxyproline concentrations in murine lungs day 28 post bleomycin injury.

The next assay relates to IL-6. The assay is described as follows: Circulating inflammatory cytokines, bleomycin treatment model. The class given is in vivo, mouse. The settings on record: intraperitoneal or nebulized; 24 hours after final administration.
The subject of assay [2] is human airway smooth muscle (HASM). The assay is described as follows: ISO-induced relaxation of intact airway tissues in muscle bath. The settings on record: 200 μM pre-treatment for 30 min; n=4. The procedure:
(§2) (A) Representative tracings of force generation. Cumulative contractile responses to CCH (B) and % relaxation to ISO doses (C). n=4; p<0.05. Inset is an immunoblot showing MK2 phosphorylation level. HASM was hung in the muscle bath and frozen. MK2 phosphorylation was determined by SDS PAGE and immunoblotting.

The test system of a further assay is MK2 phosphorylation. The assay can be described thus: MK2 phosphorylation in intact airway smooth muscle, immunoblot. On the set-up: species or system human. The conditions noted are these: 200 μM pre-treatment for 30 min. The protocol:
as §2
Background: Immunoblotting shows a protein as a band on a membrane.

The target in a further assay is PAK6(h) (Homo sapiens, UniProt Q9NQU5). The assay can be described thus: Kinase Profiling Assay. The settings on record: 100 μM peptide. The class given is biochemical. A digest of the protocol:
as §1

The target in another assay is CK1γ2(h) (Homo sapiens, UniProt P78368). The assay can be described thus: Kinase Profiling Assay. The class given is biochemical. The conditions noted are these: 100 μM peptide. In a few lines: as §1
Sequence of CK1γ2(h) (P78368 whole entry): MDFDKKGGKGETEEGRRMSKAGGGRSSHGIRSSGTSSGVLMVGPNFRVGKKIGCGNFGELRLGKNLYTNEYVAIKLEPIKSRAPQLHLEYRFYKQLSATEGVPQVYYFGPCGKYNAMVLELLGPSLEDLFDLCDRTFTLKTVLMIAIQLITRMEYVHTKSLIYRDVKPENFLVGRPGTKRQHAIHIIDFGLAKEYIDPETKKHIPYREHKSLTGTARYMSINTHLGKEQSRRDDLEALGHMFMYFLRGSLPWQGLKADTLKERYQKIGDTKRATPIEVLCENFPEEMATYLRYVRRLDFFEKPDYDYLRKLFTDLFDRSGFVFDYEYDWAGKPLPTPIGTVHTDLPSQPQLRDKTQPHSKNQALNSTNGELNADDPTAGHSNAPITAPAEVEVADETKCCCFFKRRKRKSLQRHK

Sequence of CK1γ1(h) (Q9HCP0 whole entry): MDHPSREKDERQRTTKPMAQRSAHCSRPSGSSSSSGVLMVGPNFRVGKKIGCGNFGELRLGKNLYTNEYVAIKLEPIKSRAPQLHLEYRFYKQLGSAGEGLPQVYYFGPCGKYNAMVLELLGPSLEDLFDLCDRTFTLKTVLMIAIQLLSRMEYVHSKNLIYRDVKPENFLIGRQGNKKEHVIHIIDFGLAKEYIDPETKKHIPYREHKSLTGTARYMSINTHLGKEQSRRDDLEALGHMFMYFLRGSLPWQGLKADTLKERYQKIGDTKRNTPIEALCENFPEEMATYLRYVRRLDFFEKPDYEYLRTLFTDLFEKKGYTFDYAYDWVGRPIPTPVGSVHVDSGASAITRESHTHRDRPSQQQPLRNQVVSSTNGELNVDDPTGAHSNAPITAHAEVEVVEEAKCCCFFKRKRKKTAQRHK
Sequence of PAK6(h) (Q9NQU5 whole entry): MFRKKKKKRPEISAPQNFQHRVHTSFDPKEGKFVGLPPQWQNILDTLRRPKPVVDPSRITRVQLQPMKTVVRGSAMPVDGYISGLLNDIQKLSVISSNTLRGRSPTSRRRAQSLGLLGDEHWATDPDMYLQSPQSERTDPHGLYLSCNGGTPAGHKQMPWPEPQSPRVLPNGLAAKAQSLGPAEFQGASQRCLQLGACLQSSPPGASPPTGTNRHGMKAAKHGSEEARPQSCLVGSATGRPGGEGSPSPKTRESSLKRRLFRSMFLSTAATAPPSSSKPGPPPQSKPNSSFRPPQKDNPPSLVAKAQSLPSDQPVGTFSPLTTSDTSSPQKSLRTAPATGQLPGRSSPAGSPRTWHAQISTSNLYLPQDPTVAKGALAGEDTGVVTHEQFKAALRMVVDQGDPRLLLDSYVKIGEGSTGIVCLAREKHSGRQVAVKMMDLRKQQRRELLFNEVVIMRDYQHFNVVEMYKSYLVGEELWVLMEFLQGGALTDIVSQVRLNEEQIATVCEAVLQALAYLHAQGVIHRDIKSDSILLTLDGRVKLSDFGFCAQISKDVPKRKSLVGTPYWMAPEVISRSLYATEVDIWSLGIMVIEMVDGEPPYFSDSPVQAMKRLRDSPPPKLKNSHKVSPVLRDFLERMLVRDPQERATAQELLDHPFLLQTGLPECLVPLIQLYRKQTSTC

For the molecule “YARAAARQARAKALNRQLGVA (Mammalian) [MMI-0200]”, the “CK1γ1(h) % activity” value with CK1γ1(h) was 98%. The “CLK2(h) % activity” value with CLK2(h) was 97%. The “Plk1(h) % activity” value in the assay with Plk1(h) was 128%.

With “HRRIKAWLKKIKALARQLGVAA (Mammalian) [MMI-0500]”, the “c-RAF(h) % activity” value with c-RAF(h) is given as 19%.

For `CC(C)C[C@H](NC(=O)[C@H](C)NC(=O)[C@H](CCCCN)NC(=O)[C@H](C)NC(=O)[C@H](CCCNC(=N)N)NC(=O)[C@H](C)NC(=O)[C@H](CCC(N)=O)NC(=O)[C@H](CCCNC(=N)N)NC(=O)[C@H](C)NC(=O)[C@H](C)NC(=O)[C@H](C)NC(=O)[C@H](CCCNC(=N)N)NC(=O)[C@H](C)NC(=O)[C@@H](N)Cc1ccc(O)cc1)C(=O)N[C@@H](C)C(=O)N[C@@H](CCCNC(=N)N)C(=O)N[C@@H](CCC(N)=O)C(=O)N[C@@H](CC(C)C)C(=O)NCC(=O)N[C@H](C(=O)N[C@@H](C)C(=O)N[C@@H](C)C(=O)O)C(C)C` [MMI-0100] (H-YARAAARQARAKALARQLGVAA-OH; N-terminus and C-terminus assumed), the “collagen deposition (hydroxyproline assay, whole left lung)” value in [1] (IP or NEB from day 14, day 28 post bleomycin) is “significantly arrested further progression of collagen deposition”. For the same molecule, in assay [1] (intraperitoneal or nebulized, daily day 14 to 28), the “lung architecture and collagen distribution (H&E, Masson's blue trichrome)” value is recorded as “clearer lung parenchyma”. Also, the “plasma level of IL-6” value in the assay with IL-6 was “significantly reduced”. For the same molecule, the ISO-induced relaxation entry in assay [2] was “enhances ISO-induced relaxation”. In addition, the MK2 phosphorylation level result in the assay on MK2 phosphorylation is reported as “reduced MK2 phosphorylation”.

Turning to KAFAKLAARLYRKALARQLGVAA [MMI-0400], in the assay with PAK6(h), the “PAK6(h) % activity” value is 100%.

As for FAKLAARLYRKALARQLGVAA [MMI-0300], in the assay with CK1γ2(h), the “CK1γ2(h) % activity” value was determined as 123%.

These data come from US10562947B2, “Compositions and methods for preventing or treating diseases, conditions or processes characterized by aberrant fibroblast proliferation and extracellular matrix deposition” (MOERAE MATRIX, INC., priority 2011, dated 2020).
